Experiment: yeast display, Sf9 membrane polyspecificity reagent, FACS + sequencing; frameworks hold sequencing errors
Procedure, shortened: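 Galactose-induced (36–48 hours) yeast carrying a synthetic nanobody display library were exposed to 10% biotinylated, detergent-solubilized Sf9 membrane reagent at 4 °C for 1 hour. FACS followed streptavidin microbead enrichment, using low and high (top ~1%) gates for expression (anti-HA) and reagent binding (streptavidin). Colony PCR, MiSeq 2 × 250 sequencing and CDR-length filtering followed. Labels for polyreactivity reflect the gate of origin.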

| Sequence | polyreactivity (PSR sort gate) |
| --- | --- |
| QVQLVESGGGLVQAGGSLRLSCSASGNTIRYYALGWYRQAPGKERELVATITSGGRTYYADSVKGRFTISRDNAKNTVYLQMNSLKPEDTAVYYCAAGSRSDARRYYYWGQGTQVTVSS | low polyreactivity |
| QVQLVESGVGLVQAGGSLRLSCAASGRTIDHYAMGWYRQAPGKERELVAAISTTGGSTYYADSVKGRFTISRDNAKNTVYLQMNSLKPEDTAVYYCAARGLRTGGYWGQCTQVTVSS | high polyreactivity |
| QVQLVESGGGLVQAGGSLRLSCAASGRTIQTYVMGWYRQAPGKERELVASIRSGGRTKYADSVKGRFTISRDNAKNTVYLQMNSLKPEDTAVYYCAADRRAYYYSFDYWGQGTQVTVSS | low polyreactivity |
| QVQLVESGAGLVQAGGSLRISCAASGRIFYVYAMGWYRQAPGKEREFVASISWSGGSTYYADSVKGRFTISRDNANNTVLLQMNSLKPADTAVYYCNARAFTQRYDYWGQGTQVTVSS | low polyreactivity |
| QVQLVESGGGLVQAGGSLRLSCAASGRTFYYNVMGWYRQAPGKESELVAAITNSGSTNYADSVKGRFTISRDNAKNTVYLQMNSLKPEDTAVYYCAARITYYGRKRGSRDYWGQGTQVTVSS | high polyreactivity |
| QAQLHESAGGLVQAGGCLRLSCAASGYFSKKWGMGWYRKAPGKERELVATIAKGASTYYADSMKGRFTISRDNAKYTMYRQMNSLKPEDTAVYYCGATQQDDQGLGYWGQDTQVTVSS | high polyreactivity |
| QVQIVASWGGLVQAGGSLRLSCAATGRIFEINAMGWYRQAPGKERELVAAITRSGGSTYYADSVKGRFTISRDYAKNTVYVQMNSLKPEDTAVYYCAARGRYWYSRYYSWGQGTQVTVSA | high polyreactivity |
| QVQLVDSGGGLVQAGGRLRLSCDASGLTLYKNGLGWYRLEPVKERELFAVISRSGGRTYYADSVKGRFTISRDNAKNTVYLQFNSLKPEETAVYYCAARGIGPTKYDYLGQGTQVTVSS | high polyreactivity |
| QVQLVESGGGLVQAGGSLRLSCAASGFIFWYYAMGWSRQAPGKERELVAAISKSGGRTYYADSVKGRFTISRDNAKNTVYLQMNSLKPEDTAVYYCARRAYLSYGYWSDYWGQGTQVTVSS | high polyreactivity |
| QVQIEESGGGLVQAGGSLRLSCAASGRIFGSYTMGWSRQAPRKERELVAGISRRGGSTYYADSVKGRFTISRDNAKYTVYLQMNSLTTEDTAVYYCNTLRTNLFFTPLGFDYWGQGTQVTVSS | high polyreactivity |
| QDQLVESGGGLDQAGRSLRLSCAASGFTYRPYAMGWYRQEPGKERELVAAISSIGSTYYADSVKGRFTISRDNAKYTVYLPMNSLNPEDTAVYYCIADSYVRSTIFDHWGQGTQVTVSS | low polyreactivity |
| QVQLVESGGGLVQAGGSLRLSCAASGRTFYYNTMGWYSQAPGKERELVATISRIGGSTYYADSVKGRFTISRDNAKNTVYLQMNSLKPEDTAVYYCAAYVAAYPTGYDYWGQGTQVTVSS | high polyreactivity |
| QVQLVESGGGLVQAGGSLRLSCAASGRIFYYYAMGWYRQAPGKEREFVADISARGGSTYYADSVKGRFTISRDTAKNTVYLQMNSLKPEDTAVYYCAATTGLYTRYGYWGQGTQVTVSS | high polyreactivity |
| HFQLVESGGGIVQAGGSLRLSCAASGRTCFYNAMGWYRQAPGKERELVAAISWSGGSTYYADSVKGRFTISRDNAKNPVSLQMNSLNREDTAVYYCNAAYGRRYDYWGQGTQVTVSS | high polyreactivity |
| QVQLVESGGGLVQAGGSLRLSCAASGRTFSNYVMGWSRQAPGKERELVAAITYSGGSTYYADSVKGRFTISRDNAKYTVYLQMNSLKPEDTAVYYCARRWGGSGYYYWGQGTQVTVSS | high polyreactivity |
| QVQLVESGGGLVQAGGSLRLSCAASGFIFTRNAMGLYRQAPGTERELVAVISYGGGSTYYADSVKGRFTISRDNAKNTVYLQMNSLKPEDTAVYYCAADQNWRYYYHYTYYYWGQGTQVTVSS | high polyreactivity |
| QVQLVESGGGLVQAGGSLRLICAASGIIFRVYAMGWYRQAPGKERELVATITWSGGSTFYADSVKGRFTISRDNAKNTVDLQRNSLKPEDTAVYYCAARGYLRGEQLYVLIRYDYWGQGTQVTVSS | low polyreactivity |
| QVQLVESGGGLVQAGGSLRLSCAASGIIFFKYGMGWYRQAPGKERELVAAITSGGSTYYADSVKGRFTISRDNAKNTVYLQMNSLKPEDTAVYYCNAQRYWRKVWEYESWGQGTQVTVSS | low polyreactivity |
| QVQLVESGGGLVQAGGSLRLSCAASGITFVRYAMGGYRQAPGKESELVAGISRGGSTNYADSVKGRFTISRDNAKNTVYLQMNSLKPEDSAVYYCNALYARRVYVGYDYWGQGTQVTVSS | high polyreactivity |
| QVQLVESGGGLVQAGGSLRLSCAASGRILVHNAMGWYRQAPGKERELVAVITARGASTYYADSVKGRFTISRDNAKNTVYLQMNSLKPEDTAVYYCATDKRPKYYNQYDYWGQGTQVTVSS | low polyreactivity |
| QVQLVESGGGLVQAGGSLRLSCAASGRIFYYNAMGWYRQAPGKERELVAAISWDGGSTYYADSVKGRFTISRDNAKNTVYLQMNSLKAEDTAVYYCAVDLYGTWYPTWFNYWGQGTQVTVSS | low polyreactivity |
| HVQLQESGGGLEQAGGSLRLSCAASGYISDIGTMGWYRQAPGKEREFVANIVVGSTTNYADSVKGRFTISRDNAKNTVYLQPESGRYRGVLLRGWLLAVGKFTYWGQGTQETVSS | low polyreactivity |

| Sequence | polyreactivity (PSR sort gate) |
| --- | --- |
| QDQLVESVGGLVQAGGSLRLSCAASAITFGNYAMGWYRQAPGKERELVAGISWSGSSTYYADSVKGRFTISRDNSKNTVYLQMNSLKPEDTAVYYCNAVQPARFVGGFGTGVDYWGQGTQVTVSS | high polyreactivity |
| QVQLVESGGGLVQAGGSLRLSCAASGRIFAYYAMGWYRQAPGKERELVAAITRSGARTYYADSVKGRFTISRDNAKNTVYLQMNSLKPEDTAVYYCAAEGVRIGTRYDYWGQGTQVTVSS | high polyreactivity |
| QVQLVESGGGLVQAGGSLRLSWAASGSIFDENAMGLSRQAPGKERELVAAISRSTGSTYYADSVKGRFTISRDKAKNTVYVQMNSLKPEDTAVYYCNALTYLRGPPWYTLDYWGQGTQVTVSS | low polyreactivity |
| QVQLVESGGGLVQAGGSLRLSCAASGSIFVYYAMGWYRQAPGKERELVAAITRRGGSTYYADSVKGRFTISRDNAKNTVYLQMNSLKPEDTAVYYCNSYTSRQYGLEYWGQGTQVSVSS | high polyreactivity |
| QVQLVESGGGLVQAGGILRLICAASGRTFRYNAMGWYIQAPGKERELVASINSRGDSTYYADSVKGRFTISRDNAKNTVYLQMNSLKPEDTAVYYCNKRIGVGAYYVRYGYWGQGTQVTVSS | high polyreactivity |
| QVQLVESGGGLVQAGGSLRLSCAASGRTIVWYAMGWYRQAPGKERELVAAISKRGGSTYYADSVKGRFTISRDNAKNTVYLQMNSLKPEDTAVYYCAAEVYYGSSYGYWGQGTQVTVSS | high polyreactivity |
| QVQLVESGGGLVQAGGSLRLSCAASGRTFHGYAMGWSRQAPGKERELVARINWSDGRTYYADSVKGRFTISRDNAKNTVYLQMNSLKPADTGVYYCAARLYSSASGVRWIKFDYWGQGTQVTVSS | low polyreactivity |
| QVQLVESGGGLVQAGGSLRLSCAASGITFEDNAMGWYRQAPGKERELVATISDGGRTYYADSVKGRFTISRDNAKNTVYIQMNSLKPEDTAVYYCAAGYPYYHVYGYGYWGQGTQVTVSS | low polyreactivity |
| QDQLVESGGGLVQSGGSLLLSCAPSGSTFVWYAMGWYRQERGKEMEFDATISWSDGSTYYADSVKGRFTISRDNPKNTVYLQMNILKPEDTAVYYCAAEQYGYYYSLWEYDNIWEGYWGPGTQVTVSS | low polyreactivity |
| QVQLVESGGGLVQAGGSLRLSCAASGRIFVGNAMGWYRQAPGKERELVAAISRSGGRTYYADSVKGRFTISRDNAKNSVYLQMNSLKPEDTAVYYCAAVSLSGRYGDYDYWGQGTQVTVSS | high polyreactivity |
| IILPGGRILLSCAASGRTFSGYGLGWYRQAPVKERELIADITSGGSTYYADSVKGRFTISRDNAKNTVYLQMNILIPVDTAVYYCAAERQIRSFWSSRTYEFGYWGQGTQVNVSS | low polyreactivity |
| QVQLVESGGGLVQAGGSLRLSCAASGSIFTLYAMGWYRQAPGKERELVAAITRSGGSTYYADSVKGRFTISRDNAKNTVYLQMNSLKPEDTAVYYCNKATAYGLDYWGQATQVTVSS | high polyreactivity |
| QVQLVESGGGLVQAGGSLRLSCASSGRTFRPYAKGWYRPAPGKDRELVAAITGGTRTYYADSVKGRFTISRDNAKNTVYLQMNSLKPEDTAGYYCAKGDFFSKHDYWGQGTQVTVSS | low polyreactivity |
| QFQLVESGGGLVQAGGSLRLSCAASGSTFWVYAMGWYRQAPGKERDLVAAITFRTTSTYYADSVKGRFTISRDTAKNSVSLQLKSLIPDDNAVYFCAATEYYATEYDYWGQCTQVTVSS | low polyreactivity |
| QVQLVESGGGLVQAGGSLRLSCAASGRIFAFYTMGWYIQAPGKERELVAAITRRSGSTYYADSVKGRFTISRDNAKNTVYLQMNSLKPEDTAVYYCAVDTYIYTNRRYTKFDYWGQGTQVTVSS | low polyreactivity |
| QDQLVESGGVLVQARGSLRLSCAASASTLPGYAMGWYRQAPGKERELVAAISSSGTSTYYADSVKGRFTISRDNAKNTVYLQMNSLKPEDTAVYYCAAEGYRWVTAYYDYDEDYWGQGTQVTVSS | low polyreactivity |
| QVQLVESGGGLVQAGGSLRLSCSASGSIFSHYVMGWYRQAPGKERELVAAISPSGDSTYYADSVKGRFTISRDNAKNTVYLQMNSLKPEDTAVYYCNAGFGQYRYRGHDDYWGQGTQVTVSS | high polyreactivity |
| QVQLVESGGGLVQAGGSLRLSCAASGGTFWWYTMGWYRQAPGKERELVATITRGGSTNYADSVKGRFTISRDNAKNTVYLQMNSLKPEDTAVYYCAKRYRPYYSTYDYWGQGTQVTVSS | high polyreactivity |
| QGQLVESGGGLVQAGGSLRLSCAASGRIVSVYAMGWYRQAPGKEREFVASISWRGGRTYYADSVKGRFTISRDNAKNTVYLQMNSLKPEDTALYYCATGYDYYVRRYYYWGQGTQVSVSS | high polyreactivity |
| QVQLVESGGGLVQAGGSLRLSCAASGRTFRSYAMGWYRQAPGKERELVAAISYGGGRTFYADSVKGRFTISRDNAKNTVYLQMNSLKPEDTAVYYCNAAFPRSYRFDYWGQGTKVTVSS | high polyreactivity |
| QVQLLESGGGLVPSGGSLRLSCAASGLTLYTYAMGWYRQAPGKERELVAAISKNGGRTYYADSVKGRFTISRDNAKITVYLQMNSLKPEDTAVYYCADRARVGTVTFDYWGQGTQVTVSS | low polyreactivity |
